From patent US20020044944A1 come the findings set out here.

Experiment [1] has as its target mouse Fas ligand (mouse) (UniProt P41047). In words: cell-based or functional assay.
The target in experiment [2] is human Fas ligand (human) (UniProt P48023). As to the kind of experiment: cell-based or functional assay.
Sequence of UniProt P48023 (P48023 whole entry): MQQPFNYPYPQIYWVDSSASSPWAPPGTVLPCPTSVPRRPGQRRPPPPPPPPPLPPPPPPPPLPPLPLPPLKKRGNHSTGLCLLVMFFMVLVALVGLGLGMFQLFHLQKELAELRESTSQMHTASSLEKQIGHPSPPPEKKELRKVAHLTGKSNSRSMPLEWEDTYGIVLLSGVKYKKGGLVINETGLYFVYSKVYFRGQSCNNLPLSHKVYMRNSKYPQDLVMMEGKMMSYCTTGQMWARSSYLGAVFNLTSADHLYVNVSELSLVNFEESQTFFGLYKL

Sequence of UniProt P41047 (P41047 whole entry): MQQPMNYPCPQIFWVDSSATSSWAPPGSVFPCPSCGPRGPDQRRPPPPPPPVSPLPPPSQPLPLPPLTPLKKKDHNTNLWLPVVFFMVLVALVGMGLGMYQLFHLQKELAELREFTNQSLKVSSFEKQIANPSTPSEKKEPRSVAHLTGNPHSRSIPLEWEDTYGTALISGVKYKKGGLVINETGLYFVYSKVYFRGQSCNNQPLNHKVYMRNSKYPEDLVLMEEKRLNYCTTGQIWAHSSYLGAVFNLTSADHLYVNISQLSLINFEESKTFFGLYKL

B1: shFas(nd29)-hinge (receptor)
chain: TQNLEGLHHDGQFCHKPCPPGERKARDCTVNGDEPDCVPCQEGKEYTDKAHFSSKCRRCRLCDEGHGLEVEINCTRTQNTKCRCKPNFFCNSTVCEHCDPCTKCEHGIIKECTLTSNTKCKEEGSRSNEPKSCDKTHTCPPCP
B1 yielded a specific cytotoxicity inhibition activity (51Cr release; FLm14 effector cells, W4 target cells; FIG. 12) (times higher than hFas-Fc) in experiment [1] of 3 to 10. The specific cytotoxicity inhibition activity (51Cr release; 1A12 effector cells, WC8 target cells; FIG. 11) (times higher than hFas-Fc) in experiment [2] lay within 3 to 10.

B2: shFas(nd29)-hinge, higher molecular weight gel filtration fraction (fractions 1 and 2, seemed to correspond to a dimer) (receptor)
chain: TQNLEGLHHDGQFCHKPCPPGERKARDCTVNGDEPDCVPCQEGKEYTDKAHFSSKCRRCRLCDEGHGLEVEINCTRTQNTKCRCKPNFFCNSTVCEHCDPCTKCEHGIIKECTLTSNTKCKEEGSRSNEPKSCDKTHTCPPCP
Turning to B2, the cytotoxicity inhibition activity by the assay described in Inventive Example 8 in experiment [2] (scale: times stronger than the lower molecular weight fraction) was above 50.
